Measurements reported in patent publication US20210403591A1 (OSSIANIX, published 2021).

Columns and labels:
[1] = biological target: T1, mTfR-1 G199A on Expi293 cells (mouse, UniProt Q62351 1-763); experiment: FACS, transfected Expi293 cells
T1 construct: whole, on cells
Method: (§1) Transfected Expi293 cells were harvested and 2×10⁵ cells were transferred into V-bottom 96-well plate for staining. The cells were blocked in PBS containing 1% BSA (FACS buffer) for 10 min on ice, centrifuged to remove the buffer and 1 μl of 8D3-hFc formatted antibody, Clone C-hFc or Clone C variants 18 and 13 (Table 1), all at 1 mg/ml, was added to the wells. The cells were co-stained with mouse Tf-Alexa647 (Jackson ImmunoResearch). After 30 minutes on ice, the cells were washed and incubated with anti-hFc-PE (eBioscience) for 20 minutes on ice, washed again and resuspended in […] of FACS buffer containing 5 μl of propidium iodide (PI) to exclude dead cells from the analysis. The percentage of double-positive cells that stained with mTf and the tested antibody was determined on a CytoFlex cytometer (Beckman Coulter). The percentage of cells in the double positive quadrant (Q2) for WT mTfR-1 was used for normalization.

[2] = biological target: T2, mTfR-1 K380A on Expi293 cells (mouse, UniProt Q62351 1-763); experiment: FACS, transfected Expi293 cells
T2 construct: whole, on cells
T2 sequence (Q62351 whole entry K380A): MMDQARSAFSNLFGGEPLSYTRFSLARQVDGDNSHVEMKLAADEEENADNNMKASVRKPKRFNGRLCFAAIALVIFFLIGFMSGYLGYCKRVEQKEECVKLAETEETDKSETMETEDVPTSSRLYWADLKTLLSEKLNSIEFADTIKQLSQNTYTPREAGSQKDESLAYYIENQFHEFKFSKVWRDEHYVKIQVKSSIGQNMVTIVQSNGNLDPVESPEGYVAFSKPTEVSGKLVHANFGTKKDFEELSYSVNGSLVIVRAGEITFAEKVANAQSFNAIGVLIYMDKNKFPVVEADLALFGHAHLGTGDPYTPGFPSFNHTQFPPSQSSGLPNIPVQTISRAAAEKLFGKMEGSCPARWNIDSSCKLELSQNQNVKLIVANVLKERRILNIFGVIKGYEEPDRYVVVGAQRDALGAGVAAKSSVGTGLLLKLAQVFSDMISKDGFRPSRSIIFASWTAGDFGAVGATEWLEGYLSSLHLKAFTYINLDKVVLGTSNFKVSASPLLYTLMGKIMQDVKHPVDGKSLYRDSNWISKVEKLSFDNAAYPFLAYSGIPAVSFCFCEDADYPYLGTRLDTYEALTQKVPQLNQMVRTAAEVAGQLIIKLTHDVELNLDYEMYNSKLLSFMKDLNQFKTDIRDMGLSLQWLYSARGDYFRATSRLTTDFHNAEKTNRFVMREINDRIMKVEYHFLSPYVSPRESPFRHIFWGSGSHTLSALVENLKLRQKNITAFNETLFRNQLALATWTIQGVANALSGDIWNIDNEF
Method: as §1

[3] = biological target: T3, mTfR-1 P332A on Expi293 cells (mouse, UniProt Q62351 1-763); experiment: FACS, transfected Expi293 cells
T3 construct: whole, on cells
T3 sequence (Q62351 whole entry P332A): as the sequence (Q62351 whole entry K380A) above, with P332A, A380K counted along it
Method: as §1

[4] = biological target: T4, mTfR-1 M202A on Expi293 cells (mouse, UniProt Q62351 1-763); experiment: FACS, transfected Expi293 cells
T4 construct: whole, on cells
T4 sequence (Q62351 whole entry M202A): as the sequence (Q62351 whole entry K380A) above, with M202A, A380K counted along it
Method: as §1

[5] = biological target: T5, mTfR-1 V194A on Expi293 cells (mouse, UniProt Q62351 1-763); experiment: FACS, transfected Expi293 cells
T5 construct: whole, on cells
T5 sequence (Q62351 whole entry V194A): as the sequence (Q62351 whole entry K380A) above, with V194A, A380K counted along it
Method: as §1

[6] = biological target: T6, mTfR-1 V230A on Expi293 cells (mouse, UniProt Q62351 1-763); experiment: FACS, transfected Expi293 cells
T6 construct: whole, on cells
T6 sequence (Q62351 whole entry V230A): as the sequence (Q62351 whole entry K380A) above, with V230A, A380K counted along it
Method: as §1

[7] = biological target: T7, mTfR-1 P335A on Expi293 cells (mouse, UniProt Q62351 1-763); experiment: FACS, transfected Expi293 cells
T7 construct: whole, on cells
T7 sequence (Q62351 whole entry P335A): as the sequence (Q62351 whole entry K380A) above, with P335A, A380K counted along it
Method: as §1

[8] = biological target: T8, mTfR-1 P324A on Expi293 cells (mouse, UniProt Q62351 1-763); experiment: FACS, transfected Expi293 cells
T8 construct: whole, on cells
T8 sequence (Q62351 whole entry P324A): as the sequence (Q62351 whole entry K380A) above, with P324A, A380K counted along it
Method: as §1

[9] = biological target: T9, mTfR-1 K195A on Expi293 cells (mouse, UniProt Q62351 1-763); experiment: FACS, transfected Expi293 cells
T9 construct: whole, on cells
T9 sequence (Q62351 whole entry K195A): as the sequence (Q62351 whole entry K380A) above, with K195A, A380K counted along it
Method: as §1

[10] = biological target: T10, mTfR-1 S275A on Expi293 cells (mouse, UniProt Q62351 1-763); experiment: FACS, transfected Expi293 cells
T10 construct: whole, on cells
T10 sequence (Q62351 whole entry S275A): as the sequence (Q62351 whole entry K380A) above, with S275A, A380K counted along it
Method: as §1

[11] = biological target: T11, mTfR-1 Q200A on Expi293 cells (mouse, UniProt Q62351 1-763); experiment: FACS, transfected Expi293 cells
T11 construct: whole, on cells
T11 sequence (Q62351 whole entry Q200A): as the sequence (Q62351 whole entry K380A) above, with Q200A, A380K counted along it
Method: as §1

[12] = biological target: T12, mTfR-1 I192A on Expi293 cells (mouse, UniProt Q62351 1-763); experiment: FACS, transfected Expi293 cells; mutant poorly expressed
T12 construct: whole, on cells; also called 1192A
T12 sequence (Q62351 whole entry I192A): as the sequence (Q62351 whole entry K380A) above, with I192A, A380K counted along it
Method: as §1

[13] = biological target: T13, mTfR-1 V379A on Expi293 cells (mouse, UniProt Q62351 1-763); experiment: as above
T13 construct: whole, on cells
T13 sequence (Q62351 whole entry V379A): as the sequence (Q62351 whole entry K380A) above, with V379A, A380K counted along it
Method: as §1

[14] = biological target: T14, mTfR-1 L331A on Expi293 cells (mouse, UniProt Q62351 1-763); experiment: as above
T14 construct: whole, on cells
T14 sequence (Q62351 whole entry L331A): as the sequence (Q62351 whole entry K380A) above, with L331A, A380K counted along it
Method: as §1

[15] = biological target: T15, mTfR-1 F224A on Expi293 cells (mouse, UniProt Q62351 1-763); experiment: as above
T15 construct: whole, on cells
T15 sequence (Q62351 whole entry F224A): as the sequence (Q62351 whole entry K380A) above, with F224A, A380K counted along it
Method: as §1

[16] = biological target: T16, mTfR-1 A278T on Expi293 cells (mouse, UniProt Q62351 1-763); experiment: as above
T16 construct: whole, on cells
T16 sequence (Q62351 whole entry A278T): as the sequence (Q62351 whole entry K380A) above, with A278T, A380K counted along it
Method: as §1

[17] = biological target: T17, mTfR-1 N381A on Expi293 cells (mouse, UniProt Q62351 1-763); experiment: as above
T17 construct: whole, on cells
T17 sequence (Q62351 whole entry N381A): as the sequence (Q62351 whole entry K380A) above, with A380K, N381A counted along it
Method: as §1

[18] = biological target: T18, mTfR-1 N201A on Expi293 cells (mouse, UniProt Q62351 1-763); experiment: as above
T18 construct: whole, on cells
T18 sequence (Q62351 whole entry N201A): as the sequence (Q62351 whole entry K380A) above, with N201A, A380K counted along it
Method: as §1

[19] = biological target: T19, mTfR-1 I334A on Expi293 cells (mouse, UniProt Q62351 1-763); experiment: as above
T19 construct: whole, on cells
T19 sequence (Q62351 whole entry I334A): as the sequence (Q62351 whole entry K380A) above, with I334A, A380K counted along it
Method: as §1

[20] = biological target: T20, mTfR-1 L256A on Expi293 cells (mouse, UniProt Q62351 1-763); experiment: as above
T20 construct: whole, on cells
T20 sequence (Q62351 whole entry L256A): as the sequence (Q62351 whole entry K380A) above, with L256A, A380K counted along it
Method: as §1

[21] = biological target: T21, recombinant human TfR-1, His-tagged (Sino Biological 11020-H07H) (human, UniProt P02786 89-760); experiment: SPR, His-captured TfR1
T21 construct: bought; His-tagged; also called hTfR1; hTfR-1
T21 sequence (P02786 89-760 limits assumed): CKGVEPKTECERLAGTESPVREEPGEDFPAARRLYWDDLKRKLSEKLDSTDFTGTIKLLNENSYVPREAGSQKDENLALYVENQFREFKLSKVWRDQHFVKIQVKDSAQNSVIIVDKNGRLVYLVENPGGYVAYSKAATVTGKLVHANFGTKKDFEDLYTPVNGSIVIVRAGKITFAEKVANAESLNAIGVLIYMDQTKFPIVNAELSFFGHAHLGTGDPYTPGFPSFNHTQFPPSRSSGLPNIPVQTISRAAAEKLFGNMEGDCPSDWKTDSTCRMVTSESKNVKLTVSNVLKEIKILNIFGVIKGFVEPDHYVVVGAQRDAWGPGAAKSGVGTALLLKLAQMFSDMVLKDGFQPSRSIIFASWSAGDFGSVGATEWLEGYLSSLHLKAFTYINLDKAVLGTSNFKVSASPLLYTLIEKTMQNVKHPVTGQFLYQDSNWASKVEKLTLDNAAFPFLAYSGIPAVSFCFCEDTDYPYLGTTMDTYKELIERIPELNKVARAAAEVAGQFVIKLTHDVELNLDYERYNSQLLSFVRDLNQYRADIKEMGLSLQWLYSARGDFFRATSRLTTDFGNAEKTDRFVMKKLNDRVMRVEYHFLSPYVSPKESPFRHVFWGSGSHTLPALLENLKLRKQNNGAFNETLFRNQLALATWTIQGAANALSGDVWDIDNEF
Method: (§2) Detailed binding kinetic analyses were performed to gain a better understanding of the relationship between affinity and brain penetration of the Clone C variants. Biacore surface plasmon resonance (SPR) analysis using immobilised mouse and human TfR-1 was performed for selected clones (Table 2).
(§3) Binding kinetics of VNAR-Fcs was determined by surface plasmon resonance (Biacore T200, GE Healthcare). CMS chips were coated with anti-His antibodies (His Capture Kit, GE Healthcare) as recommended by the manufacturer and human or mouse his-tagged TfR1 (SinoBiological) at 10 ug/mL in HBS-EP+ (GE Healthcare) was captured at flow rate 10 ul/min (contact time 120 s). […] A flow cell without TfR1 captured served as a reference. Sensorgrams were fitted and kinetic constants were determined using Biacore T200 Evaluation software. Chips were regenerated in 10 mM Glycine-HCl, pH 1.5 (contact time: 120 s at flow rate 30 ul/min).

[22] = biological target: T22, recombinant mouse TfR-1, His-tagged (Sino Biological 50741-M07H) (mouse, UniProt Q62351 89-763); experiment: SPR, His-captured TfR1
T22 construct: bought; His-tagged; also called mTfR1; mTfR-1
T22 sequence (Q62351 89-763 limits assumed, stated change not applied): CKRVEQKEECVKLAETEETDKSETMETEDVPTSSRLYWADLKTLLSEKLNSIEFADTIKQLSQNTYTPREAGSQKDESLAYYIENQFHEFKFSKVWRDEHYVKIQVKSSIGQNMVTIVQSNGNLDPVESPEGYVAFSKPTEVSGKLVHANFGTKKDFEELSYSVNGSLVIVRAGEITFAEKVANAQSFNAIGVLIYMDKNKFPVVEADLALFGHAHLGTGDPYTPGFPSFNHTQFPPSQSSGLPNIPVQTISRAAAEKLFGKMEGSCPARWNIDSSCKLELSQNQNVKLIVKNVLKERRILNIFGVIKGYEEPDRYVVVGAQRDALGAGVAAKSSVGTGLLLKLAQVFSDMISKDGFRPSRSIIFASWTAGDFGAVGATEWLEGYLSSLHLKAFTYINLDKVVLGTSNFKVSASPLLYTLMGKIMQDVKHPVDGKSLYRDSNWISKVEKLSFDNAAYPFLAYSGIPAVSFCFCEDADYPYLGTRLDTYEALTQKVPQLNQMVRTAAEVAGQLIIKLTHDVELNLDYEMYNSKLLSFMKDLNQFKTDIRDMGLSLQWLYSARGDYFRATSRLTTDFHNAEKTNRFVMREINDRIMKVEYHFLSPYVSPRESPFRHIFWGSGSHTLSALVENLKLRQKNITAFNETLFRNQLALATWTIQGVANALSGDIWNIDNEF
Method: as §2, §3

T1 sequence (Q62351 whole entry G199A): as the sequence (Q62351 whole entry K380A) above, with G199A, A380K counted along it

Binder | % double-positive cells vs WT [1] | % double-positive cells vs WT [2] | % double-positive cells vs WT [3] | % double-positive cells vs WT [4] | % double-positive cells vs WT [5] | % double-positive cells vs WT [6] | % double-positive cells vs WT [7] | % double-positive cells vs WT [8] | % double-positive cells vs WT [9] | % double-positive cells vs WT [10] | % double-positive cells vs WT [11] | % double-positive cells vs WT [12] | % double-positive cells vs WT [13] | % double-positive cells vs WT [14] | % double-positive cells vs WT [15] | % double-positive cells vs WT [16] | % double-positive cells vs WT [17] | % double-positive cells vs WT [18] | % double-positive cells vs WT [19] | % double-positive cells vs WT [20] | other results
8D3 antibody (anti-mouse TfR-1 control; 8D3-hFc formatted antibody) (antibody, V domains shown) VH: EVQLVESGGGLVQPGNSLTLSCVASGFTFSNYGMHWIRQAPKKGLEWIAMIYYDSSKMNYADTVKGRFTISRDNSKNTLYLEMNSLRSEDTAMYYCAVPTSHYVVDVWGQGVSVTVSS VL: DIQMTQSPASLSASLEEIVTITCQASQDIGNWLAWYQQKPGKSPQLLIYGATSLADGVPSRFSGSRSGTQFSLKISRVQVEDIGIYYCLQAYNTPWTFGGGTKLELK | 69% | 66% | 57% | 81% | 60% | 81% | 94% | 39% | 63% | 70% | 66% | 13% | 0% | 0% | 0% | 45% | 26% | 1% | 0% | 13% | –
Clone C VNAR-hFc fusion (Fc fusion, not shown: a dimerising Fc or GST, bivalent VNAR-Fc; also called Clone C-hFc) ARVDQTPQTITKETGESLTINCVLRDSNCALSSTYWYRKKSGSTNEENISKGGRYVETVNSGSKSFSLRINDLTVEDSGTYRCNVVQYPSYNNYFWCDVYGDGTAVTVN | 72% | 193% | 257% | 166% | 184% | 58% | 169% | 27% | 236% | 97% | 90% | 61% | 0% | 0% | 0% | 25% | 32% | 0% | 0% | – | Kd [21]: 0.604 nM; koff [21]: 0.000145 s⁻¹; kon [21]: 240000 M⁻¹ s⁻¹; Kd [22]: 0.892 nM; koff [22]: 0.000191 s⁻¹; kon [22]: 214000 M⁻¹ s⁻¹

Further lines, with some results ahead:

% double-positive cells vs WT [1] | % double-positive cells vs WT [2] | % double-positive cells vs WT [3] | % double-positive cells vs WT [4] | % double-positive cells vs WT [5] | % double-positive cells vs WT [6] | % double-positive cells vs WT [7] | % double-positive cells vs WT [8] | % double-positive cells vs WT [9] | % double-positive cells vs WT [10] | % double-positive cells vs WT [11] | % double-positive cells vs WT [12] | % double-positive cells vs WT [13] | % double-positive cells vs WT [14] | % double-positive cells vs WT [15] | % double-positive cells vs WT [16] | % double-positive cells vs WT [17] | % double-positive cells vs WT [18] | % double-positive cells vs WT [19] | % double-positive cells vs WT [20] | Binder | other results
36% | 81% | 79% | 103% | – | 47% | 75% | 25% | – | 54% | 72% | – | 0% | 0% | 0% | 12% | 11% | 0% | 0% | 0% | Clone C variant 13 VNAR-hFc (Fc fusion, not shown: a dimerising Fc or GST, also called Clone C v13; Clone C var; 13) ARVDQTPQTITKETGESLTINCVLRDSNCALSSTYWYRKKSGSTNEENISKGGRYVETVNSGSKSFSLRINDLTVEDSGTYRCNVVQYPQQDNYFWCDVYGDGTAVTVN | Kd [21]: 0.574 nM; koff [21]: 0.00017 s⁻¹; kon [21]: 297000 M⁻¹ s⁻¹; Kd [22]: 0.165 nM; koff [22]: 4.09e-05 s⁻¹; kon [22]: 248000 M⁻¹ s⁻¹
42% | 162% | 218% | 153% | 199% | 59% | 138% | 39% | 150% | 136% | 171% | 18% | 0% | 0% | 0% | 21% | 0% | 0% | 0% | 0% | Clone C variant 18 VNAR-hFc (Fc fusion, not shown: a dimerising Fc or GST, also called Clone C v18; Clone C var; 18) ARVDQTPQTITKETGESLTINCVLRDSNCALSSTYWYRKKSGSTNEENISKGGRYVETVNSGSKSFSLRINDLTVEDSGTYRCNVVQYPQYPNYFWCDVYGDGTAVTVN | Kd [21]: 0.314 nM; koff [21]: 0.000113 s⁻¹; kon [21]: 360000 M⁻¹ s⁻¹; Kd [22]: 0.863 nM; koff [22]: 0.000269 s⁻¹; kon [22]: 312000 M⁻¹ s⁻¹
